# Assay results as given in US12241094B2, “Phenazine degrading agents and related compositions, methods and systems for interfering with viability of bacteria” (priority 2016, dated 2025).
# B1: PodA30-162: truncated pyocyanin demethylase encoded by MFORT_14352 of Mycobacterium fortuitum lacking N-terminal helix, SEQ ID NO: 2 (protein, listed as Mycobacterium fortuitum)
# chain: MDGRGGRSTTEPVTMTLDVKNDQVAKHDFGKPGMDVGDMDIFSDILSVDGKQVGYDGGACFFTNVTPDNPMTYCELTIHLDAGEIFARSLTPHTLAPFTMAITGGTGEYANSKGELTVSGVATPDEKYELKLTKAENLYFQ
# How the values were obtained:
# [1] = Storage stability of purified PodA30-162; type: physicochemical; conditions: 20 mM Tris, pH7.6, 4° C.; as long as tested
# Protocol: Protein extraction and purification. Frozen cell pellets were thawed at room temperature and suspended in 25 mL wash buffer (200 mM KCl, 20 mM imidazole, Tris, pH 7.6). Cell suspensions were homogenized in an Emulsiflex device (Avestin). Cell debris was removed by centrifugation (Avanti J-25 centrifuge, J-series JA-25.50 rotor, Beckman-Coulter) at 50,000×g and supernatant was applied to a nickel GE Healthcare HisTrap HP 5 mL nickel column on a GE Healthcare ÄKTAxpress FPLC. All protein purification steps were carried out at room temperature. The column with bound protein was washed with wash buffer until the UV (280 nm) trace stabilized below 20 mAU. Proteins were eluted across a gradient of 20-500 mM imidazole applied over 10 column volumes. PYO demethylase activity generally eluted around 300 mM imidazole. Eluted protein was concentrated to ˜3 mL (Amicon Ultra-15 centrifugal filters, Ultracel 3K MWCO) and treated overnight with 1% wt/wt TEV protease (35) while dialyzing (Spectra/Por Biotech Dialysis membrane, MWCO: 3.5-5 kD) into buffer containing 200 mM KCl and 20 mM Tris, pH7.6 at 4 C. […] Protein quantification was carried out by Bradford assay (36) (Quick Start 1× Bradford Dye Reagent, Bio-Rad) using pre-diluted Bovine Serum Albumin standards (Thermo Scientific) to establish a standard curve. […]
# [2] = tested on: P. aeruginosa planktonic culture; assay: Phenazines in planktonic P. aeruginosa cultures (HPLC); type: cell-based
# Source text: Product was cut with DpnI to remove WT vector, phosphorylated with T4 polynucleotide kinase, and ligated to generate a circular mutant protein expression construct. For D72N and Y156F mutants, DNA fragments encoding the mutation were synthesized (Integrated DNA Technologies) and cloned into pET-20b(+) as for the wild type sequence. Enzymes for cloning were purchased from New England Biolabs. Constructs were transferred to E. coli BL21(DE3) for expression. All mutations were confirmed by Sanger sequencing (Laragen and Retrogen). When necessary, 100 μg mL^−1 carbenicillin was included in all growth media to maintain selection for the plasmid. To measure the effect of PodA30-162 on phenazine production in planktonically grown P. aeruginosa, cultures were grown overnight in 5 mL volumes of tryptic soy broth (TSB) or succinate minimal medium (arginine medium recipe from Glasser et al., 2014 with 40 mM sodium succinate in place of arginine) (3) in the presence 1 μg mL^−1 PodA30-162. Cells were removed by centrifugation and supernatants were analyzed by HPLC as previously described (9). See below for a description of biofilm growth of P. aeruginosa PA14. To induce protein expression, an overnight culture was inoculated 1/1000 in Terrific Broth (BD Difco). Cultures were grown in baffled Erlenmeyer flasks (1 L culture per 3 L flask) at 37° C. with 150 rpm agitation in a shaking incubator (Innova 44 shaking incubator, New Brunswick). After 3-4 hours, the temperature was changed to 16° C. and cultures were induced with 50 μM (final concentration) IPTG and left to incubate overnight. Cells were then pelleted by centrifugation, flash frozen in liquid N2, and stored at −80° C. for up to 1 month before protein purification.
molecule,measurement,setting,value
B1,time stable with no apparent loss of activity,[1],≥ 4 months
same,total phenazine concentrations,[2]; TSB,remain constant
same,enzyme stability in P. aeruginosa overnight culture,"[2]; TSB, enzyme added at start of culture",remained stable throughout the incubation period
same,effect on PYO in planktonic culture,"[2]; rich and minimal medium, 1 μg mL^−1 PodA30-162",conversion of PYO to 1-OH-PHZ
same,phenazine production,"[2]; tryptic soy broth, 24 hours",changes to the concentrations of all four phenazines
